Test: Nanoparticle size by dynamic light scattering (Example 2)
Format: physicochemical
Conditions: distribution by number; FIG. 2D-F, GeloninD10 series
Method: The composition comprising the HerPBK10-GFPD10 nanoparticles and the composition comprising the HerPBK10-GeloninD10 were then subjected to dynamic light scattering (DLS) to determine the diameter of the resulting nanoparticles. Solutions of GFPD10 (no HerPBK10), GeloninD10 (no HerPBK10) and HerPBK10 (no GFPD10 or GeloninD10) were also measured by DLS.

B1: GeloninD10: cytotoxic polypeptide gelonin with a C-terminal deca-aspartic acid tag (protein)
chain: GLDTVSFSTKGATYITYVNFLNELRVKLKPEGNSHGIPLLRKKCDDPGKCFVLVALSNDNGQLAEIAIDVTSVYVVGYQVRNRSYFFKDAPDAAYEGLFKNTIKTRLHFGGSYPSLEGEKAYRETTDLGIEPLRIGIKKLDENAIDNYKPTEIASSLLVVIQMVSEAARFTFIENQIRNNFQQRIRPANNTISLENKWGKLSFQIRTSGANGMFSEAVELERANGKKYYVTAVDQVKPKIALLKFVDKDPKDDDDDDDDDD
  diameter / measured size (DLS): about 2.9 nm
